From the supplement of paper PMC12042874
± gives the uncertainty stated by the source.

Test: amyloid nucleation score (Sup35N fusion, yeast selection) (log enrichment); library NNK2; higher = more nucleation; inactive = no reads after selection
Procedure, shortened: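 Random libraries were run with three technical output replicates. In each, psi-negative yeast expressing Sup35N fused to peptides of 20 random codons were induced 24 hours with 100 μM copper sulfate and grown 7 days at 30°C on medium lacking adenine and uracil, and input and output plasmid inserts were Illumina-sequenced. The nucleation score is the DiMSum log enrichment of output over input reads, centred on the mode score of non-aggregating sequences, and sequences under 100 input reads were excluded.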

**Q.** For GSPLLVNDQSDGMYTSEISF, which amyloid nucleation score is on record?
**A.** -1.32 ± 1.1

**Q.** For GSRARNLIASAQYYNG, which amyloid nucleation score is on record?
**A.** inactive

**Q.** For GSRDHKPWTNRMWFTYTVIR, which amyloid nucleation score is on record?
**A.** 0.028 ± 0.17

**Q.** With GSRYN as the substance, how does the amyloid nucleation score read?
**A.** 0.634 ± 0.54

**Q.** For GSRYTEKIPGNRNRSRISL, which amyloid nucleation score is on record?
**A.** -0.484 ± 0.35

**Q.** For GSSGLCIRSSLIYFVCQTVW, which amyloid nucleation score is on record?
**A.** 6.903 ± 0.054

**Q.** With GSSVDGADMIGTLK as the substance, how does the amyloid nucleation score read?
**A.** 1.46 ± 0.28

**Q.** For GSTKFSRDERIAEGGNRGNK, which amyloid nucleation score is on record?
**A.** -0.007 ± 0.3

**Q.** Which amyloid nucleation score does the source give for GSVREQNFISRASLYAHGLS here?
**A.** -0.095 ± 0.29

**Q.** Which amyloid nucleation score does the source give for GSWLLGMMVLQRILMNG here?
**A.** 1.41 ± 0.44

**Q.** With GSYDLEGGLLHGLTTTSYNR as the substance, how does the amyloid nucleation score read?
**A.** -0.235 ± 0.55

**Q.** With GSYGQVHSWYVCDFPGWVLR as the substance, how does the amyloid nucleation score read?
**A.** 0.438 ± 0.57

**Q.** For GSYSWSELSCMLFLFVGVSR, which amyloid nucleation score is on record?
**A.** 0.411 ± 0.53

**Q.** With GSYTHARINSVIFNRYTLCS as the substance, how does the amyloid nucleation score read?
**A.** 0.219 ± 1

**Q.** For GTFIGVNLN, which amyloid nucleation score is on record?
**A.** inactive

**Q.** Which amyloid nucleation score does the source give for GTQRAYGVKGKLETDLIRLK here?
**A.** 8.554 ± 0.059

**Q.** Which amyloid nucleation score does the source give for GTRTISLKGPSGYYA here?
**A.** -0.689 ± 0.41

**Q.** Which amyloid nucleation score does the source give for GTSVIHISYFIYYPGDRVRR here?
**A.** 6.811 ± 0.052

**Q.** With GTTWRRINECCSRANKMAPV as the substance, how does the amyloid nucleation score read?
**A.** 0.029 ± 0.35

**Q.** For GTVLAIRQLVSRCSGGVVGG, which amyloid nucleation score is on record?
**A.** 1.28 ± 0.24

**Q.** Which amyloid nucleation score does the source give for GVAMNNCGIMDSREHGFGIR here?
**A.** 0.436 ± 0.36

**Q.** With GVCVQGMFSVSYATILYKVA as the substance, how does the amyloid nucleation score read?
**A.** 1.02 ± 0.2

**Q.** For GVFASSLLVFQLFFISPSNG, which amyloid nucleation score is on record?
**A.** 6.181 ± 0.028

**Q.** For GVIVCTWPRPRDCS, which amyloid nucleation score is on record?
**A.** 0.72 ± 0.58

**Q.** Which amyloid nucleation score does the source give for GVLGTLF here?
**A.** -1.13 ± 0.76

**Q.** For GVLQTARRFPVPEGN, which amyloid nucleation score is on record?
**A.** 3.71 ± 0.12

**Q.** Which amyloid nucleation score does the source give for GVLRQEFYKSANNSMKQWLF here?
**A.** inactive

**Q.** Which amyloid nucleation score does the source give for GVNARQGSHDLVLRIVR here?
**A.** 7.39 ± 0.075

**Q.** Which amyloid nucleation score does the source give for GVRHGHTRSVGYFSVSYTSL here?
**A.** -1.05 ± 0.54

**Q.** For GVRKFLHPTTGPYMYTRCWA, which amyloid nucleation score is on record?
**A.** 0.44 ± 0.45

**Q.** Which amyloid nucleation score does the source give for GVRLDFYGNHFLWPAVSRGR here?
**A.** 3.63 ± 0.099

**Q.** With GVSGCANVSCMCADVYPIAP as the substance, how does the amyloid nucleation score read?
**A.** 9.77 ± 0.045

**Q.** With GVTVKGAVIFYRY as the substance, how does the amyloid nucleation score read?
**A.** 6.47 ± 0.074

**Q.** With GVTWTV as the substance, how does the amyloid nucleation score read?
**A.** -0.104 ± 0.25

**Q.** For GVYWILFIAWLRKVRWYSDV, which amyloid nucleation score is on record?
**A.** -0.144 ± 0.32

**Q.** Which amyloid nucleation score does the source give for GWASHGDNDSAMTGGSVWPG here?
**A.** 0.587 ± 0.62

**Q.** For GWFGARRGMSIYRVHNWFVF, which amyloid nucleation score is on record?
**A.** 5.738 ± 0.048

**Q.** With GWGRLTY as the substance, how does the amyloid nucleation score read?
**A.** 0.21 ± 0.74

**Q.** Which amyloid nucleation score does the source give for GWPHKVEFKVNDIFMIFSMM here?
**A.** 5.281 ± 0.034

**Q.** For GWQGTLVNCLEDYVCYVCHA, which amyloid nucleation score is on record?
**A.** 5.34 ± 0.058

**Q.** Which amyloid nucleation score does the source give for GWVCRKRWVVLYMKICMIRR here?
**A.** -0.249 ± 0.21

**Q.** For GWVMVVPFPCMIVVVSAVGS, which amyloid nucleation score is on record?
**A.** -0.152 ± 0.4

**Q.** Which amyloid nucleation score does the source give for GWVNRIYTRQLECSSLEYFF here?
**A.** 3.17 ± 0.11

**Q.** For GYEASHSRFASSHLTPWGKR, which amyloid nucleation score is on record?
**A.** 1.74 ± 0.32

**Q.** Which amyloid nucleation score does the source give for GYFKRHLRM here?
**A.** -0.619 ± 1

**Q.** Which amyloid nucleation score does the source give for GYLVYFLCINRLACCSYLAT here?
**A.** 7.981 ± 0.065

**Q.** With GYNHFFTNDIISRGFPVSFK as the substance, how does the amyloid nucleation score read?
**A.** inactive

**Q.** Which amyloid nucleation score does the source give for GYRYWRTACSALFRWSEMC here?
**A.** 0.948 ± 0.26

**Q.** Which amyloid nucleation score does the source give for GYSGVLILWEVVICWYGVTG here?
**A.** -0.313 ± 0.61

**Q.** With GYSYTLRDRCESRLTLRSDV as the substance, how does the amyloid nucleation score read?
**A.** 0.382 ± 0.37

**Q.** With GYTRNHSLCFFFRMLYM as the substance, how does the amyloid nucleation score read?
**A.** -1.29 ± 1

**Q.** Which amyloid nucleation score does the source give for GYVFASSVD here?
**A.** 0.791 ± 0.81

**Q.** With HAMWCFGFIVLGGGNDIRIW as the substance, how does the amyloid nucleation score read?
**A.** 8.219 ± 0.045

**Q.** For HAPPNCVSSIHSRRVSSWHE, which amyloid nucleation score is on record?
**A.** 0.333 ± 0.65

**Q.** With HCGCMEQA as the substance, how does the amyloid nucleation score read?
**A.** 0.486 ± 0.8

**Q.** With HCGYRVIELDLSRLASRSLR as the substance, how does the amyloid nucleation score read?
**A.** 0.195 ± 0.32

**Q.** Which amyloid nucleation score does the source give for HCHWWEGWRVEVYCLFPVTT here?
**A.** 7.852 ± 0.064

**Q.** With HCNLSWSCTSGIALSRT as the substance, how does the amyloid nucleation score read?
**A.** 4.54 ± 0.1

**Q.** With HCSWLYVLSYVSMSNICIGY as the substance, how does the amyloid nucleation score read?
**A.** -0.876 ± 0.76

**Q.** For HCVLYCNMALFLQRSHRASC, which amyloid nucleation score is on record?
**A.** 8.484 ± 0.039

**Q.** For HCVMLHGGSPRHLNRRTDIC, which amyloid nucleation score is on record?
**A.** 0.292 ± 0.27

**Q.** Which amyloid nucleation score does the source give for HDMEYKVMDRIARM here?
**A.** -0.501 ± 1.1

**Q.** With HEHLLPRT as the substance, how does the amyloid nucleation score read?
**A.** 0.02 ± 0.74

**Q.** With HEPGFHYYCY as the substance, how does the amyloid nucleation score read?
**A.** 2.43 ± 0.1

**Q.** With HEQLW as the substance, how does the amyloid nucleation score read?
**A.** -0.243 ± 0.48

**Q.** For HEVYNKGPT, which amyloid nucleation score is on record?
**A.** inactive

**Q.** With HFDFGFIGRDVIDVIDVRTN as the substance, how does the amyloid nucleation score read?
**A.** 0.039 ± 0.46

**Q.** For HFDSYNRNSMSSRPSVGILS, which amyloid nucleation score is on record?
**A.** -0.441 ± 1.1

**Q.** With HFGAFMHCVCTRLKMS as the substance, how does the amyloid nucleation score read?
**A.** -0.08 ± 0.61

**Q.** With HFMIVSLDGNHVMTTAAGVA as the substance, how does the amyloid nucleation score read?
**A.** 0.233 ± 0.43

**Q.** With HFWVLFMLEETQSKFYLQST as the substance, how does the amyloid nucleation score read?
**A.** -0.923 ± 0.64

**Q.** For HGDMYRRQDVVSGSNE, which amyloid nucleation score is on record?
**A.** 0.153 ± 0.49

**Q.** With HGGQEAVHLRRCGGYDMSKA as the substance, how does the amyloid nucleation score read?
**A.** 0.451 ± 0.42

**Q.** Which amyloid nucleation score does the source give for HGKCVFGLPVLLQWKLGDQT here?
**A.** 0.607 ± 0.57

**Q.** With HGRRQGFAVTVGN as the substance, how does the amyloid nucleation score read?
**A.** 0.355 ± 0.45

**Q.** Which amyloid nucleation score does the source give for HGTIFTIYVC here?
**A.** -0.875 ± 0.42

**Q.** For HGVLVIVRAYVHVGEWVAQL, which amyloid nucleation score is on record?
**A.** 1.96 ± 0.4

**Q.** For HGYHSGTLIALYVDN, which amyloid nucleation score is on record?
**A.** inactive

**Q.** With HHFNLPMKKGRFVSLGFSLV as the substance, how does the amyloid nucleation score read?
**A.** -0.623 ± 1

**Q.** With HHFTFQAAYFRNIPLESADE as the substance, how does the amyloid nucleation score read?
**A.** 0.906 ± 0.23

**Q.** With HHIRSFVETGGDTWWGRCSR as the substance, how does the amyloid nucleation score read?
**A.** 1.05 ± 0.21

**Q.** Which amyloid nucleation score does the source give for HHKLLGWFDVEKGMPVRLWA here?
**A.** 0.148 ± 0.43

**Q.** Which amyloid nucleation score does the source give for HHLLVRMSMCC here?
**A.** 4.49 ± 0.058

**Q.** Which amyloid nucleation score does the source give for HIDVLMGCWMRIVTWSR here?
**A.** 2.17 ± 0.29

**Q.** Which amyloid nucleation score does the source give for HIEVSACTRFLILNIHLRII here?
**A.** -1.46 ± 0.53
